{"source": "patent US11781164B2", "about": "“Demethylation of reticuline and derivatives thereof with fungal cytochrome P450” (priority 2017, dated 2023)", "molecules": {"B1": {"name": "CYPDN7: cytochrome P450 homolog I1CBZ0 from Rhizopus delemar, codon-optimized (protein)", "chain": "MALEGALPLFQKRSKSSYIVAAILLITVKQIYSFFRVPTNLRHLPCVSFFAMAKSLLTCEPPYNRFKRITFPAIQEGNGFYVSKIPTGWTVYVANPVAAKQLLLKSNNFPKSHYGLDTIGEKSTAVQFVGRDNVVLSNGEIWKKQRKIMNPVFHRSMPIKTVASLVPLLFSAIEEANGRIMITPKMKDFTLDALGLTIFDFDFKALQGDPDNWTSIYRLITRSIFDPISYVFCALEPLLVYVYPKRRRSVDAVAKINAKFDQVISKKREELQNGIFSNKPDNEKDLVTLMLEAGMQEDVSITNEELRHNMAVLFLAGHDSTSNTLSFCLYHLAKNKRAQQKLREEIINILGDDDIDIVPSLEELKQMKYMNMVIKETLRLGMPLDLLTPRKTVEDTFVADTFIPKDTVIAVDAGALHRDPRSWKDPDEFVPERFEDDGEQNSHEGLTWVPFSNGTRQCIGMNFSLMEQRLTLTMLLRKYEVDLPKDSIHYDHIIYEQPSYVCPESLELIFTKRY", "modifications": "Rhizopus delemar"}, "B2": {"name": "Cel_CPR_co: codon-optimized cytochrome P450 reductase from Cunninghamella elegans (protein)", "chain": "MAQQTPAVIDTLDLILLGSIGLGTIAWFTRRQLSERLFGTGQSNATPKPTTPQAPKRERNFVKVMEQQGRKVIFFYGSQTGTAEDFASRLAKQCSQKYGVSCMTADIEMYDLSYLDTLSEDSLVCFVMATYGEGEPTDNAVDFWEQFITDESPVFSEGGETLENLRYLMFGLGNKTYEHYNAVARILDKKLTGLGAKRIGERGEGDDDGSLEEDFLAWQESMWPTFCDALGVDENNAQQGPRQASYSVDELKEEYKNDDVYFGELGTKSKDSSRVVYDAKRPYNAPITTRELFNSSERHCLHVDIDISGTNLSYQTGDHVAMWPTNNEDEVLRLANILGLQDKLDNVISVKAIDPAAPKQHPFPVPTTYRAIFRHYIDICAPASRQSLMSFVEFAPTDSAKDLLKLLATDKDEYRLKVGEAVRNLGEVLELVSGNDKDTQPGSFTSVPFDLIVETIPRLQPRYYSISSSSKENSSIISATCVTLAYQPDPTPDRTVYGVNTNFLYRIHTQSSDNDIQGLPKYDLAGPRKAFLNEQGQSHKLPIHIRRSQFKLPRNTSCPVIMIGPGTGVAPFRGFVRERALQKKEGKSVGPTVLFFGNRHSEHDFLYSDEWPELFNTLGDDSKLITAFSRETEHKVYVQHRLEENGKDIWQLLEKGAYIYVCGDARNMARDVNQTFVNLAMEYGEKTEQKALDYVKSLRNTGRYQEDVWS", "modifications": "codon-optimized; Cunninghamella elegans"}, "B3": {"name": "CYPDN35: cytochrome P450 homolog A0A1X2GSL0 from Hesseltinella vesiculosa, codon-optimized (protein, listed as Hesseltinella vesiculosa)", "chain": "MLTQYLQFAADRLGQKKTLDQLQAVVTSKQGVVGITTAVALIALANHFRSPKIDRGCPQVEGKGWFGYATEEFRENPGKFLSEWHEKLGPVYGVKIFGHYATVVSGPYVREVFLDDRFSFIAAITKLFDPNLMTDSGHSSEQTAKNAADSIKRFLSPNLKHYTPRVIEHLNLGIEDWCGEVPAEGIEIENAFPFLQHLVARASASVFVGIELAKNEELVDSFQNMVSNISSGLKPKPWLEYFPSLTKLGMYMIGKTNPAVKRHRTQMANALRPEVDRRLKAMASNDTNWDRPDDMLQHILESYPAPEGLDVITYLINWMTQLIFAALHTTSENGKVVLYRLLQHPEVMEELYAEQNEVLAAAGYDESAGPEVFDREMLNKFVKLDSAVREACRLKNEFVGLPHENTTDKTLTLSNGAVILPGEFVYINQFVNHRDPELQAAIDDVHQFKPFRFVGTDHNAAKVSEGFVFFGMGRHACPGRWFAIQEIKTIVSLLLRKYKVEPIDPIVFSNQERDAFPIGPCRIRLTPRKAL"}, "B4": {"name": "CYPDN34: cytochrome P450 homolog A0A068SBP8 from Lichtheimia corymbifera, codon-optimized (protein, listed as Lichtheimia corymbifera)", "chain": "MYKAFLDNGIVSSIISTLDNKDISVFLNDPNHAKTRSVALVSFCTVIAAYALSRSRSHSKDKDTPMVPYTWPLIGSSREYRKDPEAFIKKWSSELGDVYKVHLFGRIQTVVSGKHVYCLQKDFDFQQGMSKTFDIWLLLDAPLGGRFTLDKIRHATIKFTRTKMLTNTPCVVKQLIAAEHEMIGDAQTPSEIANLYPLMEHLVAIASATNFVGPGLTKDKDLVETYKHLAVDVGSELGDGNEFLEAFPWISRLRMWYLGKYGNSVDKHRKRLLRAMKPIIDERLAAAENGIENPQDFIQDIIEESEITSGDPDKYILAVRWILVMIASAGHTTTENTTIILYRILQHPEVIDELLEEQRQVLEKHHGPDVKDNEDLATLFTGEVIKDLVKLDSVCRETMRLRSFYIDLPHTYVGKSPLALTNTCTIKPGEDVLLNMWLNHNRTAMQYDGLGDYNEFKPFRFVGLDRSSTKLGGDFLLFGLGTHACPGRWFAMHQTKTILSMLLRRYQITPQETIVFPIGNRSHVPSGKVTFQKRQ"}, "B5": {"name": "CYPDN6: cytochrome P450 homolog A0A0B7NKC0 from Parasitella parasitica, codon-optimized (protein, listed as Parasitella parasitica)", "chain": "MAVLCLVLERIYASYAVPPSYLRHYPKVSLFDMLKSFYIKESVASRNKRLIAPLTNAGHGFYVCRIPLNWTIYVTDPLAAKTLLLKSENFPKNKAIFTALGDSSPVIKFMGKENVAMSNGEEWKKQRKIMNPAFHRSQPVKTFGNVMPDLFALIDQDPERVFITPKMKSFALDALGLSAFGFDFQSLKGDPEGWTRKYNVVISTLFNPFVNIFASLDFLVKYISPERRRVIKATDEFNSMLGELADKRRQEILDGEKKNIPENEKDLLTLMIEADIRDNIKTTTTELRHNMAIFFLAGHDSTANTLSLCLYNLAKHKHVQKKARQEVLAILGDEPLDVIPTAEDLKKLDYVNMVIKENLRRNGPADNLMSRDTQQDMNLNGTIIPKGSKVSVNVAAIHLNPKIWHDPENFIPERFEQGGEFEQHDGFTWIPFSNGSRQCLGLNFSLTEQRVVLCMILKRYEIDIPKDSIHYNEIVFDGAFTFAPQSLELSFKRRY"}, "B6": {"name": "CYPDN4: cytochrome P450 homolog I1CCX6 from Rhizopus delemar, codon-optimized (protein)", "chain": "MVKSFLKAESPTDRYKRIIHPVASKGNGFYVSKVPFLWAVYVTNPVVAKQVLLKSDIFPKNHAVFHQIGKDSPFTQFLGLDNVALSNGDVWKKQRKVMNPAFHRSLPIKTMASVVNTLFSVIDNSDGPVLITSAMQNFTLDVLGLAIFGFEFKALQGDPDNWTKTYKTVIESLFDPVMNVFATFDTLLTWVYPKRRECSVAISKMNLKFDELAKQKRAEVKSGAYANVPDHDKDLLTLMLEAMEKGEALTSQDELRHNIAVFFLAGHGTTAHTLSFCFYHLAKNKHIQRKLREEIISVLGDEPVDIVPSLEQMKHMKYMNLVIKENLRMNTPADTLFTRDTVEDINLAGHIIPKDTAISIDINAIHHDPKYWHNPEHFIPERFAEGGEQESHEGLTWLPFSNGSRQCIGMNFSLAEQRLVLAMLVRKYEIDIPKDSIHYERILFDRPGNIAPLSLGLTFTKRY", "modifications": "Rhizopus delemar"}, "B7": {"name": "CYPDN5: cytochrome P450 homolog A0A1X0RYU8 from Rhizopus microsporus, codon-optimized (protein, listed as Rhizopus microsporus)", "chain": "MELTEIAIETYHRALDKLVPILQKRSKRSYIGVAVALVVLERIYSFFRVPKSIRHIPAVPYFAMAKSFLTSEAPSSRHQRIVLPVIEKGNGIYVNKLPLEWTVNVATPTSAKHVLLKSEIYPKSESFLKLLGPQSPAVLFLGGKNVGFVNGDAWRKQRKIMNPAFHRSMPIQTMASVMPDFFSAIDKYGDEGIPISTIMRDFTLDVLGHTAFGFDFKALKGDPDNWTRTYHIINNALFNPTANMLTSLNPILSIISPERRRILEAIKKLNGMLEAMIKQKRQEVQSNAQAHAPENEKDLLTLMLEAQQRGEGLATDEELKHNVSGFFLAGHDTTSETLSFYFYNIAKNKDVQRKLREELNAVLGDKPVDVIPTLEQLKSMEYLNCTIKENLRLNGPADNVLPRVATEDMVVDGTPIPKGTVVNVDIHAIHHDTRYWKDPYKFVPERFLPGGEHDSHSGMTWLPFGNGARQCLGMNFSLAEQRLVIAMTVRKYDIEVPKDSIHYDHPILESSKTKAPASLKLIFRKRY"}, "B8": {"name": "CPR_DN5866_c0_g1_Cd9: native cytochrome P450 reductase clone from T. piriforme, day 9 cDNA (pEV31725) (protein)", "chain": "MAQSSPALLDSLDIVFLGTIGLGTIAWFARRQIAERIFGSKDDANKNVGNGNAPTAPKRERNFVKVMQEQGRKVIFFYGSQTGTAEDYASRLAKECSQKYGVSCMTADIELYDLTYLDTVPEDFLVFFIMATYGEGEPTDNAVDFWEQLTEEEPQFSEGDTLGNLRYVVFGLGNKTYEHYNEVARRMDKLLTKLGAKRIGERGEGDDDASLEEDFLAWQDSMWPAFCDALGVDESNGSSGPRQAMYAVEELEGQEAVYLGELGEKPKEGVKVVYDAKRPYNAPLVSQDLFKNTDRHCLHIDIDVSDSNLSYQTGDHIAIWPTNSDDEVARLASLLGLTDKLDTSVMVKAIDSTASKQYPFPVPATYRSIFRHYLDICAPASRQTLMSLVEYAPTEASKEALRLLSKDKDEYRLKVGEAVRNLGEVLELAAGADARPGLFSTVPFDLIVESVSRLQPRYYSISSSAKESPKVIAVTAVTLTYNPDPTPERTVYGVNTNYLWQIHAAKHNVNDGQRYPTYDLAGPRNALQGAKVPVHIRRSQFKLPRNPTVPVIMVGPGTGVAPFRGFVRERAAQKTDGKPVGPTLLFFGCRNSQQDFLYKDEWPELFATLGDESRIVTAFSRETPQKVYVQHRLQENGEELWNLLQKGAYIYVCGDAKNMARDVNQTFVNFAIEFGGQTEEKAHDYVKNLRNSGRYQEDVWS", "modifications": "Thamnostylum piriforme"}}, "key": {"[1]": {"test_system": "thebaine", "experiment": "Demethylation of thebaine by new cytochrome P450 fungal and plant homologs co-expressed with CPRs in S. cerevisiae", "conditions": "0.5 mM thebaine, SC or DELFT media pH 7, 72 h, 30° C.; co-expressed with Cel_CPR_co, Tp_CPR_5866, Tp_CPR_DN10898 or POR1"}, "[2]": {"test_system": "thebaine", "experiment": "Bioconversion of thebaine (N-demethylation to northebaine) by S. cerevisiae expressing cytochrome P450s and CPRs, LC-MS", "conditions": "0.1 mM thebaine, 0.1 M potassium phosphate buffer pH 7, 72 h, 30° C."}}}
{"molecule": "B1", "values": [{"measurement": "Northebaine production", "setting": "[1]", "result": "+"}]}
{"molecule": "B2", "values": [{"measurement": "support of N-demethylase activity of P450_DN15259_c0_g1_i7_A by CPR (northebaine)", "setting": "[2]", "result": "found to support N-demethylase activity"}]}
{"molecule": "B3", "values": [{"measurement": "Northebaine production", "setting": "[1]", "result": "+"}]}
{"molecule": "B4", "values": [{"measurement": "Northebaine production", "setting": "[1]", "result": "+"}]}
{"molecule": "B5", "values": [{"measurement": "Northebaine production", "setting": "[1]", "result": "+"}]}
{"molecule": "B6", "values": [{"measurement": "Northebaine production", "setting": "[1]", "result": "−"}]}
{"molecule": "B7", "values": [{"measurement": "Northebaine production", "setting": "[1]", "result": "+"}]}
{"molecule": "B8", "values": [{"measurement": "support of N-demethylase activity of P450_DN15259_c0_g1_i7_A by CPR (northebaine)", "setting": "[2]", "result": "yielded more northebaine"}]}
